Experimental data reported in patent US20230257435A1, “Wound Healing Composition and Uses Thereof” (AGENCY FOR SCIENCE, TECHNOLOGY AND RESEARCH, priority 2020, published 2023).

Experiments:
mouse skin explants = assay: Mouse skin explant assay (keratinocyte outgrowth); assay type: cell-based
Experimental: Three days old ICR strain mouse pups were sacrificed and the hind skin on either side of the midline in the shoulder region was washed in 70% ethanol and excised using scalpel. The excised skin was washed in 70% ethanol and placed (dermis side down) on the pre-made gel substrates of defined stiffness, either in the absence or presence of 20 μg/ml sAgrin. The explants were allowed to adhere for 2 h before adding the keratinocyte culture medium (DMEM) containing 300 μM Ca^2+ as described previously^31. The keratinocyte outgrowth and the skin tissues regularly imaged under an Axiovert-200 inverted microscope and were subsequently fixed in 4% paraformaldehyde and immunostained for Keratin 17 antibody.
Tissue culture plates were coated with Col-T-gel (Fischer Scientific) of stiffness ranging from 0.8 KPa (soft) to 30 KPa (stiff) as per manufacturer recommendations and allowed to solidify for 40 min at 37° C. inside tissue culture incubators. Some experiments were performed with cells seeded on the poly-hydrogel plates of defined stiffness: 0.2 kPa and 16 kPa soft and hard polyhydrogels, respectively (CytoSoft, Advanced Biomatrix, Inc.,). The determination of stiffness of silicone substrates were done by the manufacturer as per previously published protocols. For certain experiments, indicated amounts of sAgrin was incorporated into the 0.8 KPa collagen gels before gelation process. Upon gelation, trypsinized cells or excised mouse skin explants were plated onto the gels of different stiffness either alone or containing sAgrin. The cells/tissues were incubated under standard culture condition with 500 μl recommended culture medium for the indicated days. The crossbow shaped micropatterns with fibronectin coated islands were generated by microlithography on a 19.5×19.5 mm coverslide from Cytoo, Inc., France. The micropatterns had surface areas of 800μ^2 or 1600μ^2, respectively. Fifty thousand cells after initial siRNA treatment was placed on the micropatterns for 4-6 h before processing them for immunofluorescence. […]

MMP12 = MMP12 activity assay (gelatin and casein zymography); assay type: cell-based, human; details: Agrin silenced keratinocytes, increasing dose of sAgrin 24 h
Experimental: MMP12 activity were monitored via Gelatin and Casein zymography as per previously published protocols. Briefly, control or Agrin depleted HaCaT cells were grown till 80-90% confluency in media without FBS. Supernatants collected from each culture dish were spun down at 10,000 rpm for 5 min and concentrated using Amicon ultra columns. Twenty microliter of medium was mixed with 2×SDS loading buffer and loaded on 10% gelatin or casein gel. The gels were washed with incubation buffer and subsequently stained with Coomassie Brilliant Blue for 1 h. The gels were de-stained for 30 min before imaging using a Chemidoc imager.

pMLC = assay: Force transmission via ligand conjugated magnetic beads; assay type: cell-based, human
Experimental: The ligands were conjugated to 4.5 μm epoxide paramagnetic beads (Dynabeads M-450 Epoxy, Thermo Fisher Scientific) according to the manufacturer's manual. Briefly, the beads were washed twice in 0.1 M sodium phosphate buffer, pH 7.4. Subsequently. 8×10^7 beads were conjugated to 20 μg sAgrin, BSA and FN per in 0.1 M sodium phosphate buffer at pH 7.4 for 16-18 h at 4° C. with gentle rotation throughout. The degree of protein conjugation to the beads was verified by a reducing SDS-PAGE gel analysis using a subset of ligand conjugated beads. The remaining beads were washed and subsequently stored in 0.1% BSA-phosphate buffered saline (PBS) pH 7.4 at 4° C. They were subsequently suspended in medium and added on the cells for 30 min at 37° C. After a brief wash with PBS to remove excess non-adherent beads, the cells were placed under a permanent neodymium magnet (J Magnetics, USA) at a distance of 6 mm apart for another 30 min that allowed a vertical tensile force in the magnitudes of ˜200 pN on the beads. The cells were then fixed in 4% paraformaldehyde, permeabilized and processed for immunofluorescence.

B1: sAgrin: C-terminus recombinant Agrin fragment containing 8 amino acid 'Z8' insert and LG3 domain (SEQ ID NO: 7), His-tagged, expressed in E. coli (protein)
chain: DTLAFDGRTFVEYLNAVTESELANEIPVEKALQSNHFELSLRTEATQGLVLWSGKATERADYVALAIVDGHLQLSYNLGSQPVVLRSTVPVNTNRWLRVVAHREQREGSLQVGNEAPVTGSSPLGATQLDTDGALWLGGLPELPVGPALPKAYGTGFVGCLRDVVVGRHPLHLLEDAVTKPELRPCPTP
modifications: His tag
In the case of B1, the “keratinocyte outgrowth on soft substrates” value (mouse skin explants; soft ECM, 20 μg/ml sAgrin, day 5) is reported as “significantly enhanced keratinocyte outgrowth”, the “keratinocyte outgrowth of Agrin depleted explants on stiff substrates” value (mouse skin explants; stiff ECM with 20 μg/ml sAgrin) is reported as “exhibited higher keratinocyte outgrowth” and the “MMP12 gelatin and casein degradation catalytic activity” value (MMP12) is reported as “restored by sAgrin supplementation in a dose-dependent pattern”. For the same molecule, the “pMLC recruitment with increasing sAgrin coated beads” value (pMLC; 30 min post-wound scratch) was “greater pMLC recruitment at 30 min post-wound scratch in a dose-dependent fashion”, the “pMLC intensity in MMP12 depleted cells after force transmission” value (pMLC; 30 min post-wounding) was “unable to rescue the reduced pMLC intensity” and the “pMLC recruitment near beads in control cells with exogenous force” value (pMLC; 30 min post-wounding) was “further surged pMLC recruitment”. For the same molecule, the “pMLC recruitment upon force in Agrin depleted cells (confocal)” value (pMLC; 30 min post-wounding, compared to FN or BSA beads) was “enhanced pMLC recruitment upon force application”, the “MMP12 recruitment in pMLC activated regions” value (pMLC; Agrin depleted cells, force transmission) was “effectively enhanced MMP12 recruitment in pMLC activated regions” and the “increase of pMLC around the bead vicinity” value (pMLC; Agrin depleted cells, force with sAgrin beads 30 min) was roughly 2 folds. The “activated integrin β1-Agrin localization” value (pMLC; control migrating keratinocytes, ligand beads, force) was “substantially increased activated integrin β1-Agrin localization” and the “rescue of reduced pMLC in Agrin depleted cells by force through ligand beads” value (pMLC; siAgrin cells) was “only restored by force transduced by sAgrin”.
